For experiment [1], the target named is T1, H7CRECD human IgG1 Fc fusion protein (human, UniProt Q96BF3 23-150).
T1 construct: also called H7CR fusion protein; not shown: human IgG1 Fc
T1 sequence: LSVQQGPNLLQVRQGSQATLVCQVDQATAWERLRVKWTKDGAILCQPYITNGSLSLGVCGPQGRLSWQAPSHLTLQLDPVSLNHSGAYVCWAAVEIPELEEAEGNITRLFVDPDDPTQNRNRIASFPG
The experiment in a line: ELISA, H7CRECD human IgG1 Fc immobilized, anti-human IgG4 HRP detection. As to the method:
100 μl 1 μg/ml H7CRECD human IgG1 Fc fusion protein diluted in PBS was immobilized on flat bottom 96 well plate (Costar 9017) overnight at 4° C. Plates were washed twice with PBS+0.1% PS-20 and blocked with 200 μl/well PBS 10% FBS at RT for 1 hr. 100 μl human IgG4 Fc chimeric 1.3 and 14 selected 1.3 humanized variants diluted in PBS 10% FBS were added to each well and incubated at RT for 1 hr. Plates were washed three times and 100 μl 1 μg/ml anti-human IgG4 HRP (Southern Biotech) was added to each well and incubated at RT for 1 hr. Plates were washed six times and 100 μl TMB substrate (SurModics) was added to each well for 5-15 mins. 100 μl stop solution (0.1M Sulfuric acid) was added to each well. Plates were read at Absorbance 450 nm by PerkinElmer EnVision 2104 Multilabel Reader.
A general note: In an ELISA, binding on a coated surface is turned into a signal by an enzyme label.

The target in experiment [2] is T2, human H7CR (B7-H7 counter-receptor) (human, UniProt Q96BF3 23-282).
T2 construct: Used for H7CR on CHO.hH7CR transfectants, human T cells and tonsil tissue; also called B7-H7CR; CD28H
T2 sequence: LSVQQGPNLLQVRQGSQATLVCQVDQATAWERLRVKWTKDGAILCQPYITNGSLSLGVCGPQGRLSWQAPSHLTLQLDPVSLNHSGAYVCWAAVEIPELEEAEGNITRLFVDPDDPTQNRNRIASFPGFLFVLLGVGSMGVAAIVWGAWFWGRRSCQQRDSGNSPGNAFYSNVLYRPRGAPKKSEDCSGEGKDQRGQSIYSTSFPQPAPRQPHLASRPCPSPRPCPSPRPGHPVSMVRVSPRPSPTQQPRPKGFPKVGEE
The experiment in a line: flow cytometry, MFI against antibody concentration on human naive CD8+CD45RA+ T cells, anti-hIg PE secondary antibody, one-site specific binding fit. On the procedure:
(§1) A serial dilution of chimeric 1.3 and 4.5 of 0, 0.1 ng, 0.3 ng, 1 ng, 3 ng, 10 ng, 30 ng, 100 ng, 300 ng, 1 μg, 3 μg and 10 μg were added to the cells and incubated at 4° C. for 30 min. Cells were then washed twice with 2 ml flow cytometry buffer, and resuspended in 100 μl flow cytometry buffer. 1 μl anti-hIg PE secondary antibody (Biolegend) was added and incubated with the cells for 15 mins Samples were then washed and resuspended in 100 μl flow cytometry buffer. Flow Cytometry data was acquired using BD Canto (BD Biosciences) in plate format and analyzed by FlowJo software. Staining data (MFI) was then input into Prism 5 software to generate binding curve. Curve-fit using one-site specific binding algorithm calculates individual KD for each antibody.
(In general: Flow cytometry measures light scatter and fluorescence of single cells or particles in a stream.)

In experiment [3] the target is T2, human H7CR (B7-H7 counter-receptor). Put plainly: flow cytometry titration on CHO.hH7CR transfectants, one-site specific binding fit of MFI. As to the method: as §1
For experiment [4] the target is unchanged. Put plainly: flow cytometry, MFI against antibody concentration on human naive CD4+CD45RA+ T cells, anti-hIg PE secondary antibody, one-site specific binding fit. As to the method: as §1

B1: human IgG4 Fc chimeric 1.3 antibody (antibody, V domains shown)
VH: QIQLQESGPGLVKPSQSLSLTCSVTGFSISTSGYYWTWIRQFPGKRLEWMGYINYGGGTSYNPSLKSRISITRDTSKNQFLLHLNSVTTEDTATYCCATMADRFAFFDVWGQGIQVTVSS
VL: DIVMTQSPSSLAVSAGEKVTISCLSSQSLFSSNTNRNYLNWYLQKPGQSPKLLIYHASTRLTGVPDRFIGSGSGTDFTLTISSVQAEDLGDYYCQHHYETPLTFGDGTKLEIKR
notes: also called parental chimeric 1.3 antibody
Turning to B1, the EC50 in experiment [1] was 0.055 nM. Besides, the Kd in experiment [2] is 27 nM; in experiment [3], 5.9 nM; in experiment [4], 24 nM.

B2: chimeric 4.5 antibody (antibody, human IgG4 S228P, kappa, V domains shown)
VH: QIQLQESGPGLVKPSQSLSLTCSVTGFSITTGGYYWNWIRQFPGKKLEWMGYIYTSGRTSYNPSLKSRISITRDTSKNQFFLQLNSMTTEDTATYYCADMADKGGWFAYWGQGTLVTVSS
VL: DIVMTQSPSSLAVSAGEKVTISCLSSQSLFSSNTKRNYLNWYLQKPGQSPKLLIYHASTRLTGVPGRFIGSGSGTDFTLTVSTVQAEDLGDYFCQQHYETPLTFGDGTRLEIKR
With B2, the Kd in experiment [2] stood at 6.9 nM; in experiment [3], 3.5 nM; in experiment [4], 6.9 nM.

B3: 1.3 humanized variant V8 (heavy 1C / light 1B) (antibody, V domains shown)
VH: QVQLQESGPGLVKPSQTLSLTCTVSGFSISTSGYYWSWIRQFPGKRLEWMGYINYGGGTSYNPSLKSRVTISRDTSKNQFSLKLSSVTAADTATYCCATMADRFAFFDVWGQGTMVTVSS
VL: DIVMTQSPDSLAVSLGERATINCKSSQSLFSSNTNRNYLNWYQQKPGQSPKLLIYHASTRLSGVPDRFSGSGSGTDFTLTISSLQAEDVADYYCQHHYETPLTFGDGTKLEIK
notes: Variable domains only; detected with anti-human IgG4 HRP
In experiment [1], B3 came in with an EC50 of 0.74 nM. This lies in the sub-nanomolar range.

B4: 1.3 humanized variant V4 (heavy 2A / light 1A) (antibody, V domains shown)
VH: QVQLQESGPGLVKPAQTLSLTCTVSGFSISTSGYYWSWIRQYPGKGLEWIGYINYGGGTYYNPSLKSRVTISVDTSKNQFSLKLTSVTAADTAVYHCATMADRFAFFDVWGQGTMVTVSS
VL: DIVMTQSPDSLAVSLGERATINCKSSQSLFSSNTNRNYLAWYQQKPGQPPKLLIYHASTRESGVPDRFSGSGSGTDFTLTISSLQAEDVAVYYCQHHYETPLTFGQGTKLEIK
notes: as for B3
On to B4, for which, in experiment [1], the EC50 was found to be 1.08 nM.

B5: 1.3 humanized variant V11 (heavy 1B / light 1C) (antibody, V domains shown)
VH: QVQLQESGPGLVKPSQTLSLTCTVSGFSISTSGYYWSWIRQHPGKRLEWIGYINYGGGTSYNPSLKSRVTISRDTSKNQFSLKLSSVTAADTAVYCCATMADRFAFFDVWGQGTMVTVSS
VL: DIVMTQSPDSLAVSLGERATINCLSSQSLFSSNTNRNYLNWYLQKPGQSPKLLIYHASTRLSGVPDRFIGSGSGTDFTLTISSLQAEDVGDYYCQHHYETPLTFGDGTKLEIK
notes: as for B3
B5 showed an EC50 in experiment [1] of 1.04 nM.

B6: 1.3 humanized variant V5 (heavy 2B / light 1A) (antibody, V domains shown)
VH: QVQLQESGPGLVKPAQTLSLTCTVSGFSISTSGYYWSWIRQYPGKRLEWIGYINYGGGTSYNPSLKSRVTISRDTSKNQFSLKLTSVTAADTATYCCATMADRFAFFDVWGQGTMVTVSS
VL: DIVMTQSPDSLAVSLGERATINCKSSQSLFSSNTNRNYLAWYQQKPGQPPKLLIYHASTRESGVPDRFSGSGSGTDFTLTISSLQAEDVAVYYCQHHYETPLTFGQGTKLEIK
notes: as for B3
In turn, B6 gave an EC50 in experiment [1] of 0.28 nM.

B7: 1.3 humanized variant V13 (heavy 2B / light 1C) (antibody, V domains shown)
VH: QVQLQESGPGLVKPAQTLSLTCTVSGFSISTSGYYWSWIRQYPGKRLEWIGYINYGGGTSYNPSLKSRVTISRDTSKNQFSLKLTSVTAADTATYCCATMADRFAFFDVWGQGTMVTVSS
VL: DIVMTQSPDSLAVSLGERATINCLSSQSLFSSNTNRNYLNWYLQKPGQSPKLLIYHASTRLSGVPDRFIGSGSGTDFTLTISSLQAEDVGDYYCQHHYETPLTFGDGTKLEIK
notes: as for B3
Molecule B7 registered an EC50 in experiment [1] of 0.45 nM. Against the preceding molecule, the EC50 is about 1.6-fold higher.

B8: 1.3 humanized variant V6 (heavy 2C / light 1A) (antibody, V domains shown)
VH: QVQLQESGPGLVKPAQTLSLTCTVSGFSISTSGYYWSWIRQFPGKRLEWMGYINYGGGTSYNPSLKSRVTISRDTSKNQFSLKLTSVTAADTATYCCATMADRFAFFDVWGQGTMVTVSS
VL: DIVMTQSPDSLAVSLGERATINCKSSQSLFSSNTNRNYLAWYQQKPGQPPKLLIYHASTRESGVPDRFSGSGSGTDFTLTISSLQAEDVAVYYCQHHYETPLTFGQGTKLEIK
notes: as for B3
In turn, B8 showed an EC50 in experiment [1] of 0.3 nM.

B9: 1.3 humanized variant V1 (heavy 1A / light 1A) (antibody, V domains shown)
VH: QVQLQESGPGLVKPSQTLSLTCTVSGFSISTSGYYWSWIRQHPGKGLEWIGYINYGGGTYYNPSLKSRVTISVDTSKNQFSLKLSSVTAADTAVYYCATMADRFAFFDVWGQGTMVTVSS
VL: DIVMTQSPDSLAVSLGERATINCKSSQSLFSSNTNRNYLAWYQQKPGQPPKLLIYHASTRESGVPDRFSGSGSGTDFTLTISSLQAEDVAVYYCQHHYETPLTFGQGTKLEIK
notes: Variable domains only; detected with anti-human IgG4 HRP; also called VI; variant 1
B9 registered an EC50 in experiment [1] of 0.84 nM. Compared with the last molecule, the EC50 is about 2.8-fold higher.

B10: 1.3 humanized variant V3 (heavy 1C / light 1A) (antibody, V domains shown)
VH: QVQLQESGPGLVKPSQTLSLTCTVSGFSISTSGYYWSWIRQFPGKRLEWMGYINYGGGTSYNPSLKSRVTISRDTSKNQFSLKLSSVTAADTATYCCATMADRFAFFDVWGQGTMVTVSS
VL: DIVMTQSPDSLAVSLGERATINCKSSQSLFSSNTNRNYLAWYQQKPGQPPKLLIYHASTRESGVPDRFSGSGSGTDFTLTISSLQAEDVAVYYCQHHYETPLTFGQGTKLEIK
notes: as for B3
For the molecule B10, in experiment [1], the EC50 is 0.38 nM.

B11: 1.3 humanized variant V7 (heavy 1B / light 1B) (antibody, V domains shown)
VH: QVQLQESGPGLVKPSQTLSLTCTVSGFSISTSGYYWSWIRQHPGKRLEWIGYINYGGGTSYNPSLKSRVTISRDTSKNQFSLKLSSVTAADTAVYCCATMADRFAFFDVWGQGTMVTVSS
VL: DIVMTQSPDSLAVSLGERATINCKSSQSLFSSNTNRNYLNWYQQKPGQSPKLLIYHASTRLSGVPDRFSGSGSGTDFTLTISSLQAEDVADYYCQHHYETPLTFGDGTKLEIK
notes: as for B3
On to B11, for which the EC50 in experiment [1] was 1.01 nM.

B12: 1.3 humanized variant V10 (heavy 2C / light 1B) (antibody, V domains shown)
VH: QVQLQESGPGLVKPAQTLSLTCTVSGFSISTSGYYWSWIRQFPGKRLEWMGYINYGGGTSYNPSLKSRVTISRDTSKNQFSLKLTSVTAADTATYCCATMADRFAFFDVWGQGTMVTVSS
VL: DIVMTQSPDSLAVSLGERATINCKSSQSLFSSNTNRNYLNWYQQKPGQSPKLLIYHASTRLSGVPDRFSGSGSGTDFTLTISSLQAEDVADYYCQHHYETPLTFGDGTKLEIK
notes: as for B3
In the case of B12, it took 1.18 nM to reach a half-maximal effect in experiment [1] (EC50).

B13: 1.3 humanized variant V12 (heavy 1C / light 1C) (antibody, V domains shown)
VH: QVQLQESGPGLVKPSQTLSLTCTVSGFSISTSGYYWSWIRQFPGKRLEWMGYINYGGGTSYNPSLKSRVTISRDTSKNQFSLKLSSVTAADTATYCCATMADRFAFFDVWGQGTMVTVSS
VL: DIVMTQSPDSLAVSLGERATINCLSSQSLFSSNTNRNYLNWYLQKPGQSPKLLIYHASTRLSGVPDRFIGSGSGTDFTLTISSLQAEDVGDYYCQHHYETPLTFGDGTKLEIK
notes: as for B3
In experiment [1], B13 gave an EC50 of 0.75 nM.

B14: 1.3 humanized variant V9 (heavy 2B / light 1B) (antibody, V domains shown)
VH: QVQLQESGPGLVKPAQTLSLTCTVSGFSISTSGYYWSWIRQYPGKRLEWIGYINYGGGTSYNPSLKSRVTISRDTSKNQFSLKLTSVTAADTATYCCATMADRFAFFDVWGQGTMVTVSS
VL: DIVMTQSPDSLAVSLGERATINCKSSQSLFSSNTNRNYLNWYQQKPGQSPKLLIYHASTRLSGVPDRFSGSGSGTDFTLTISSLQAEDVADYYCQHHYETPLTFGDGTKLEIK
notes: as for B3
B14 registered an EC50 in experiment [1] of 2.43 nM.

B15: 1.3 humanized variant V2 (heavy 1B / light 1A) (antibody, V domains shown)
VH: QVQLQESGPGLVKPSQTLSLTCTVSGFSISTSGYYWSWIRQHPGKRLEWIGYINYGGGTSYNPSLKSRVTISRDTSKNQFSLKLSSVTAADTAVYCCATMADRFAFFDVWGQGTMVTVSS
VL: DIVMTQSPDSLAVSLGERATINCKSSQSLFSSNTNRNYLAWYQQKPGQPPKLLIYHASTRESGVPDRFSGSGSGTDFTLTISSLQAEDVAVYYCQHHYETPLTFGQGTKLEIK
notes: as for B3
B15 registered an EC50 in experiment [1] of 0.23 nM.

B16: 1.3 humanized variant V14 (heavy 2C / light 1C) (antibody, V domains shown)
VH: QVQLQESGPGLVKPAQTLSLTCTVSGFSISTSGYYWSWIRQFPGKRLEWMGYINYGGGTSYNPSLKSRVTISRDTSKNQFSLKLTSVTAADTATYCCATMADRFAFFDVWGQGTMVTVSS
VL: DIVMTQSPDSLAVSLGERATINCLSSQSLFSSNTNRNYLNWYLQKPGQSPKLLIYHASTRLSGVPDRFIGSGSGTDFTLTISSLQAEDVGDYYCQHHYETPLTFGDGTKLEIK
notes: as for B3
Turning to B16, in experiment [1], it took 0.32 nM to reach a half-maximal effect (EC50).

As a reminder, the EC50 is the concentration needed to bring the measured effect to its halfway point. A low value points to a more potent agent. For orientation: Kd means a measure of binding affinity in units of concentration. High values mean weaker binding, low ones tighter binding.
